The target in this test is Von Willebrand factor (VWF) (human) (UniProt P04275). Nature of the test: specific fVIII activity of the purified complex; heparin-Sepharose purified starting material, VWF 0.54 mg/ml and fVIII activity 38 U/ml (one-stage coagulation assay); mass ratio worked out with a cited specific activity of fVIII of ~5000 U/mg.

“blood coagulation factor VIII (fVIII) (natural protein)”: the percentage mass ratio of fVIII to VWF amounted to 1%.

Values taken from article PMC8005835.
